Results on 84 variants are retold here after the RNAGym collection of RNA variant scans (doi:10.1073/pnas.2313332121).

To fix the notation:
B1: TPR t1 (parent)
chain: GACCAAUCUGCCCUCAGAGCUCGAGAACAUCUUCGGAUGCAGAGGAGGCAGGCUUCGGUGGCGCGAUAGCGCCAACGUCCUCAACCUCCAAUGCAUCCCACCACAUGAUGAUGCCUGAAGAGCCUUGGUUUUUUG

This series covers variants of B1. The experiment in a line: polymerase ribozyme fitness, log enrichment relative to wild type (log ratio); higher = more active; in vitro selection for triplet polymerase activity. The procedure, abridged:
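Mutant libraries of each subunit of a heterodimeric triplet polymerase ribozyme were built by PCR and transcribed. Each library went through one round of in vitro selection in triplicate: annealing with biotinylated primer, partner subunit and triplets, frozen incubation at −7 °C, gel excision of extended constructs, streptavidin-bead capture and RT-PCR. Input and output libraries were Illumina-sequenced; only genotypes with ≥10 input reads and ≥1 read per output were kept. Fitness is log2(genotype enrichment/wild-type enrichment), using inverse-variance-weighted replicate averages.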
For the variant U78C U112A A118U, the “polymerase ribozyme fitness (log ratio)” value stood at 1.17.

As for C102A U112G U132A, the “polymerase ribozyme fitness (log ratio)” value was -2.53.

Turning to A18G C123U, the “polymerase ribozyme fitness (log ratio)” value is -1.44.

In the case of C28U G61A C64U A121C, the “polymerase ribozyme fitness (log ratio)” value is -4.25.

Take C49U C62A: the “polymerase ribozyme fitness (log ratio)” value is -2.25.

With C4G A18C, the “polymerase ribozyme fitness (log ratio)” value is -3.16.

For the variant C20G C115G, the “polymerase ribozyme fitness (log ratio)” value was -4.85.

As for C4U A43C U125A, the “polymerase ribozyme fitness (log ratio)” value was -3.11.

On to C31U C34G C53G C70G A90C G120A G122A C124A, for which the “polymerase ribozyme fitness (log ratio)” value was -7.98.

For C8G C13U G45C A84C, the “polymerase ribozyme fitness (log ratio)” value was determined as 0.0875.

U106A U112A: the “polymerase ribozyme fitness (log ratio)” value was 0.701.

For the variant A6G A46U U54G, the “polymerase ribozyme fitness (log ratio)” value was -1.68.

Turning to G10A C79A C123U, the “polymerase ribozyme fitness (log ratio)” value is 1.23.

As to C53G C124U U129A, the “polymerase ribozyme fitness (log ratio)” value was -0.596.

As to G52U A83U C98U, the “polymerase ribozyme fitness (log ratio)” value is -2.49.

A27U U54A A75U U78C G127C: the “polymerase ribozyme fitness (log ratio)” value is -6.04.

Take C13U C82A C97A: the “polymerase ribozyme fitness (log ratio)” value is -4.74.

In the case of C12A C20A G63A U87A G122U, the “polymerase ribozyme fitness (log ratio)” value is -4.81.

On to G25A G60C, for which the “polymerase ribozyme fitness (log ratio)” value was -7.2.

Consider C11G C72G C82G G117C, for which the “polymerase ribozyme fitness (log ratio)” value was -3.64.

As to C12A G71U, the “polymerase ribozyme fitness (log ratio)” value was -0.821.

Consider C20U A43G C53A G110U G120U, for which the “polymerase ribozyme fitness (log ratio)” value was -6.4.

Regarding A27U G39C G120U, the “polymerase ribozyme fitness (log ratio)” value was -2.78.

Regarding A43G G57U C73U A90U C102U, the “polymerase ribozyme fitness (log ratio)” value is -4.93.

As for C12A C70G, the “polymerase ribozyme fitness (log ratio)” value was -2.78.

Consider C40G U55G, for which the “polymerase ribozyme fitness (log ratio)” value is -0.761.

For G71A C85U G128U U131A, the “polymerase ribozyme fitness (log ratio)” value was -3.17.

For the variant C20A G61A C80G U109A G113U U133G, the “polymerase ribozyme fitness (log ratio)” value is -7.36.

As to C12G G47U U87G U116A C124A, the “polymerase ribozyme fitness (log ratio)” value is -1.26.

On to G36A G45C A83G C101G, for which the “polymerase ribozyme fitness (log ratio)” value is -2.84.

As for A16U G17C C114U, the “polymerase ribozyme fitness (log ratio)” value is -1.76.

Turning to G36A G42A A74G G127C, the “polymerase ribozyme fitness (log ratio)” value was -3.95.

Turning to A2G C34U, the “polymerase ribozyme fitness (log ratio)” value was -4.37.

C3A G10A A75G C86G C98U G122A: the “polymerase ribozyme fitness (log ratio)” value was -2.58.

Take A46C G52U C88A G110A A118G U126C: the “polymerase ribozyme fitness (log ratio)” value was -3.39.

Turning to G52A G120A, the “polymerase ribozyme fitness (log ratio)” value is 0.47.

Turning to A6U C11U C124G, the “polymerase ribozyme fitness (log ratio)” value turned out to be 1.11.

On to G57U U129C, for which the “polymerase ribozyme fitness (log ratio)” value is -1.6.

With C53U C62A U78C, the “polymerase ribozyme fitness (log ratio)” value was -1.46.

Take A2G C3G C31G A43U G60U C94U C114G: the “polymerase ribozyme fitness (log ratio)” value is -7.19.

Turning to C11U G19A G61A U131G, the “polymerase ribozyme fitness (log ratio)” value was -3.33.

C40A G44A U92G A95U C115U: the “polymerase ribozyme fitness (log ratio)” value is -6.45.

Regarding A6G G77U C82A C104U A121U U130A, the “polymerase ribozyme fitness (log ratio)” value came to 1.36.

U9C C56G C62G: the “polymerase ribozyme fitness (log ratio)” value is -3.04.

With C12A C73A, the “polymerase ribozyme fitness (log ratio)” value worked out at 1.15.

As to A5U C11G C56U, the “polymerase ribozyme fitness (log ratio)” value was -0.378.

On to G36A A37G C70A, for which the “polymerase ribozyme fitness (log ratio)” value is -3.19.

As for G44A G45U G77A U129C, the “polymerase ribozyme fitness (log ratio)” value is -3.02.

In the case of A26U G42U G69C C72A C79U G110C, the “polymerase ribozyme fitness (log ratio)” value was -7.46.

As for A6U G58A A83U U106A, the “polymerase ribozyme fitness (log ratio)” value was 0.545.

For the variant C53A U112G, the “polymerase ribozyme fitness (log ratio)” value is -0.496.

For C13G C40A C123U, the “polymerase ribozyme fitness (log ratio)” value is -0.0334.

As to C11G G25C G39A C56A C72G C82A A111C, the “polymerase ribozyme fitness (log ratio)” value is -7.55.

Turning to C94U G117U, the “polymerase ribozyme fitness (log ratio)” value came out at 0.0636.

A6U G52U C53G G128C: the “polymerase ribozyme fitness (log ratio)” value is -3.38.

As for G44C G61A A66G A75G, the “polymerase ribozyme fitness (log ratio)” value was -2.01.

Take C11G G117U: the “polymerase ribozyme fitness (log ratio)” value is -1.54.

Regarding A46U C72G C114U, the “polymerase ribozyme fitness (log ratio)” value was -4.52.

Turning to G39A G57A G60C C101A G113C, the “polymerase ribozyme fitness (log ratio)” value was -6.12.

Take G39A G110C: the “polymerase ribozyme fitness (log ratio)” value is -4.65.

Consider G63A C82G G117U C123G, for which the “polymerase ribozyme fitness (log ratio)” value is -3.95.

On to U21G C22A A27U, for which the “polymerase ribozyme fitness (log ratio)” value is -4.41.

On to G61A U81A, for which the “polymerase ribozyme fitness (log ratio)” value was -0.273.

On to A84G U130G, for which the “polymerase ribozyme fitness (log ratio)” value is -1.3.

For the variant C79A U131C, the “polymerase ribozyme fitness (log ratio)” value was -0.838.

C88A G110A: the “polymerase ribozyme fitness (log ratio)” value was -1.49.

On to U9G G51C C56G C62U C80G A119U, for which the “polymerase ribozyme fitness (log ratio)” value was -0.0854.

Consider C11A G45U U125G G127A, for which the “polymerase ribozyme fitness (log ratio)” value was -4.

With C40U A41U G60A, the “polymerase ribozyme fitness (log ratio)” value was -2.3.

Take A5C C13U G44C G48U C115U: the “polymerase ribozyme fitness (log ratio)” value was -3.4.

As for C11U G44C, the “polymerase ribozyme fitness (log ratio)” value is -1.47.

Turning to C13A G44A C89U C102G, the “polymerase ribozyme fitness (log ratio)” value was -6.88.

For G48C C86U C115A, the “polymerase ribozyme fitness (log ratio)” value is -1.07.

Consider A5U A18G C20G C82U C94U A111C U112G A121C, for which the “polymerase ribozyme fitness (log ratio)” value is -6.26.

For A84U G128C, the “polymerase ribozyme fitness (log ratio)” value was -2.56.

Take G93U C102A G120A: the “polymerase ribozyme fitness (log ratio)” value was -2.52.

Take A6G U14G G58A: the “polymerase ribozyme fitness (log ratio)” value is -0.642.

Take G47A C56A G113U C114A A121G: the “polymerase ribozyme fitness (log ratio)” value is -2.45.

With G48U A100C A105C C123U, the “polymerase ribozyme fitness (log ratio)” value is -4.99.

For the variant C3A A5G C12A G63U A68G C115G G122A U130G, the “polymerase ribozyme fitness (log ratio)” value is -6.94.

G61C C101U: the “polymerase ribozyme fitness (log ratio)” value is -1.77.

Turning to A27U C72U C85G A111U U132A, the “polymerase ribozyme fitness (log ratio)” value is -4.04.

Regarding G71C G117C, the “polymerase ribozyme fitness (log ratio)” value is -4.7.

For the variant C28A U54A G71U G110U, the “polymerase ribozyme fitness (log ratio)” value was 1.85.
